Laboratory results as given in patent US20050048594.

Tests used:
[1] = tested on: T1, peptide ARKRERAF(3-CF3)SFGHHA
T1 sequence: ARKRERAFSFGHHA

[2] = tested on: T2, CF3-CO N-capped-AKTide (CF3-CO-ARKRERAYSFGHHA)
T2 sequence: ARKRERAYSFGHHA

## WtAKT1 recombinant protein (activated protein Ser/Thr kinase AKT1)
[1]
  phosphorylation of the peptide followed by 19F NMR (25 nM AKT1): The peptide is a good substrate for AKT1 and trypsin
[2]
  phosphorylation of the peptide followed by 19F NMR (time to complete conversion; 50 nM AKT1, 30 uM peptide, 131 uM ATP): The enzymatic reaction is complete after 149 minutes and only the signal of the phosphorylated peptide is visible in the spectrum
